Measured values reported in patent US20170138946A1 (Memorial Sloan Kettering, published 2017).

Target: T1, Enhancer of zeste homolog 2 (EZH2) (human, UniProt Q15910 1-746, limits assumed)
T1 construct: Endogenous protein in SET2 cells
Experiment: co-immunoprecipitation of endogenous EZH2 and BAP1 in SET2 cells with Western blot, in presence of benzonase
From the text: FIG. 13A-L. BAP1 depletion leads to an increase in PRC2 component expression, increased H4K20me1 and deubiquitination of L3MBTL2. (a) Co-immunoprecipitation of endogenous EZH2 and BAP1 in SET2 cells followed by Western blot analysis (performed in presence of benzonase to inhibit interactions dependent on DNA). (b) Bap1, Ezh2 and Suz12 expression by qRT-PCR from sorted granulocyte-macrophage progenitor (GMP; Lin⁻ c-Kit⁺Sca1⁻CD34′Fcγ⁺). (c) Western blot analysis of Bap1 and Ezh2 in bone marrow cells from Bap1 KO and control mice. (d) H4K20me1 quantification from histone mass spectrometry experiments. (e) Cell viability as assessed by Cell Titer Glo viability assay and (f) Annexin V assays for SETD8 overexpression experiments in BAP1 wild-type (MSTO-211H, Meso10) and mutant cell lines H226, deletion; H2452 catalytic mutation). (g) Quantitative qPCR for SETD8 and EZH2 in BAP1 mutant cells with SETD8 overexpression. (h) Western blot analysis for SETD8 and EZH2 in a BAP1 wild-type cell line. (i) Cell Titer Glo assay in cells treated with DMSO or 5, 10, 20 μM BVT594. (j) L3MBTL2 and BAP1 expression in BAP1 wild-type (Met5a, JMN) and mutant mesothelioma cell lines (H226, H2452, H28). (k) 293T cells overexpressing Myc-His tagged ubiquitin and L3MBTL2 cDNA and varying levels of BAP1 (0, 5 μg, 2.5 μg, 1 μg). […] Statistics were calculated with Student t-test; *p<0.05, **p<0.005; ±SEM values reported. […]

T1 sequence (Q15910 whole entry): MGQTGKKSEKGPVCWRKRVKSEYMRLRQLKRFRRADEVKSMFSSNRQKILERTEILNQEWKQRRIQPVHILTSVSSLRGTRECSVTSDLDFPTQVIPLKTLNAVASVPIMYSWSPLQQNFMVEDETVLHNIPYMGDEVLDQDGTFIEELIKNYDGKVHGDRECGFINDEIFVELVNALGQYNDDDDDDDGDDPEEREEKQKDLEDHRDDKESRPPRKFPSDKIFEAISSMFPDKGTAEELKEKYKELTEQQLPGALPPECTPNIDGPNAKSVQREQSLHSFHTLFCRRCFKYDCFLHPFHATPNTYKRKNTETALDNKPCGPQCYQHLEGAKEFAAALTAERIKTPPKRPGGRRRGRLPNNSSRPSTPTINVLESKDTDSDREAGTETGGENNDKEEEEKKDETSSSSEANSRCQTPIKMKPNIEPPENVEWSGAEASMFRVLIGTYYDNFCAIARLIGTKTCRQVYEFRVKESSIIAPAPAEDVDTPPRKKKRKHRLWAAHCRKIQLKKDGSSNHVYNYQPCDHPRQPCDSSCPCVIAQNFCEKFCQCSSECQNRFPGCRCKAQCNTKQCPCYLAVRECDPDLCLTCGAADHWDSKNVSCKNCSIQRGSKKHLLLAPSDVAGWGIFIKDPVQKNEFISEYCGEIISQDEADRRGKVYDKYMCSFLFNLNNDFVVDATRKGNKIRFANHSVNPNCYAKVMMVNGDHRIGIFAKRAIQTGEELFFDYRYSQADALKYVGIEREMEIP

binding result: no binding
B1: BRCA1 associated protein-1 (BAP1) (enzyme, human, UniProt Q92560 1-729, looked up)
chain: MNKGWLELESDPGLFTLLVEDFGVKGVQVEEIYDLQSKCQGPVYGFIFLFKWIEERRSRRKVSTLVDDTSVIDDDIVNNMFFAHQLIPNSCATHALLSVLLNCSSVDLGPTLSRMKDFTKGFSPESKGYAIGNAPELAKAHNSHARPEPRHLPEKQNGLSAVRTMEAFHFVSYVPITGRLFELDGLKVYPIDHGPWGEDEEWTDKARRVIMERIGLATAGEPYHDIRFNLMAVVPDRRIKYEARLHVLKVNRQTVLEALQQLIRVTQPELIQTHKSQESQLPEESKSASNKSPLVLEANRAPAASEGNHTDGAEEAAGSCAQAPSHSPPNKPKLVVKPPGSSLNGVHPNPTPIVQRLPAFLDNHNYAKSPMQEEEDLAAGVGRSRVPVRPPQQYSDDEDDYEDDEEDDVQNTNSALRYKGKGTGKPGALSGSADGQLSVLQPNTINVLAEKLKESQKDLSIPLSIKTSSGAGSPAVAVPTHSQPSPTPSNESTDTASEIGSAFNSPLRSPIRSANPTRPSSPVTSHISKVLFGEDDSLLRVDCIRYNRAVRDLGPVISTGLLHLAEDGVLSPLALTEGGKGSSPSIRPIQGSQGSSSPVEKEVVEATDSREKTGMVRPGEPLSGEKYSPKELLALLKCVEAEIANYEACLKEEVEKRKKFKIDDQRRTHNYDEFICTFISMLAQEGMLANLVEQNISVRRRQGVSIGRLHKQRKPDRRKRSRPYKAKRQ
notes: Immunoprecipitated from cell lysates; It is endogenous in the human leukemia line SET2
